In test [1] the target is T1, human Myl3-His (human, UniProt P08590 2-195, limits assumed).
T1 construct: Made in E. coli; the GST tag was cleaved with PreScission Protease
Put plainly: ELISA, human Myl3-His coated, anti-human IgG-HRP. Here is the method: (§1) The binding ability against human Myl9 was evaluated following the steps below by ELISA. Human Myl3-His and human Myl9-His were coated onto the wells of a 96-well plate (Nunc). After an overnight incubation at 4° C., the wells were blocked at room temperature for one hour with 1× Block Ace (DS Pharma Biomedical Co., Ltd.). After washing three times with 0.02% Tween 20/PBS, seven serial dilutions by six folds of the chimeric and humanized antibodies were made from a concentration of 10 μg/mL and added to the wells. After incubation at room temperature for one hour and washing three times, horseradish peroxidase-labeled anti-human IgG antibody (Jackson ImmunoResearch Laboratories) was added, and this was incubated at room temperature for one hour. After washing 5 times, TMBZ (3,3′,5,5′-tetramethylbenzidine) solution was added to the wells, and this was incubated for 5-20 minutes at room temperature. An equal amount of reaction quenching solution (2N H₂SO₄) was added to the wells, and absorbance at 450 nm was read with a microplate reader (PerkinElmer).
(In an ELISA, binding on a coated surface is turned into a signal by an enzyme label.)

In the next test the target is T2, human Myl9-His (human, UniProt P24844 2-172, limits assumed).
T2 construct: Made in E. coli; the GST tag was cleaved with PreScission Protease
T2 sequence: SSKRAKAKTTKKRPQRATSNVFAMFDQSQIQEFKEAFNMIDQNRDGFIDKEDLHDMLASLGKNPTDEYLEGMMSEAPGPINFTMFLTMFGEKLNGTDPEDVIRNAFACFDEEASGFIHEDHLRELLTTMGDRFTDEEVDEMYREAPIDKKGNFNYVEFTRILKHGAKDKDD
Put plainly: ELISA, human Myl9-His coated, anti-human IgG-HRP. The method, then: as §1

For a further test, the target named is T3, human Myl12a-His (human, UniProt P19105 1-171).
T3 construct: Made in E. coli; GST tag cleaved with PreScission Protease; DTT-treated monomer
T3 sequence: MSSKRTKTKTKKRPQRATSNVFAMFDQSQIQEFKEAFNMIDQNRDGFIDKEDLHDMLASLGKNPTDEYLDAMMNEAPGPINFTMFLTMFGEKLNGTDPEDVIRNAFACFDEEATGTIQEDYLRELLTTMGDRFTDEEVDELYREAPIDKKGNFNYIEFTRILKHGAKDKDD
Put plainly: ELISA, human Myl12a-His coated, anti-human IgG-HRP. The method, then: (§2) The binding ability of chimeric and humanized antibodies prepared from Antibody A against human Myl12a and Myl12b was evaluated following the steps below by ELISA. Human Myl3-His, human Myl9-His, human Myl12a-His and human Myl12b-His were coated onto the wells of a 96-well plate (Nunc), respectively. After an overnight incubation at 4° C., the wells were blocked at room temperature for one hour with 1× Block Ace (DS Pharma Biomedical Co., Ltd.). After washing three times with 0.02% Tween 20/PBS, the chimeric and humanized antibodies were diluted at the concentration of 0.01, 0.1 and 1 μg/mL, respectively and added to the wells. After incubation at room temperature for one hour and washing three times, horseradish peroxidase-labeled anti-human IgG antibody (Jackson ImmunoResearch Laboratories) was added, and this was incubated at room temperature for one hour. After washing 5 times, TMBZ (3,3′,5,5′-tetramethylbenzidine) solution was added to the wells, and this was incubated for 5-20 minutes at room temperature. An equal amount of reaction quenching solution (2N H₂SO₄) was added to the wells, and absorbance at 450 nm was read with a microplate reader (Thermo Scientific).

For a further test, the target named is T4, human Myl12b-His (human, UniProt O14950 1-172).
T4 construct: Made in E. coli; GST tag cleaved with PreScission Protease; DTT-treated monomer
T4 sequence: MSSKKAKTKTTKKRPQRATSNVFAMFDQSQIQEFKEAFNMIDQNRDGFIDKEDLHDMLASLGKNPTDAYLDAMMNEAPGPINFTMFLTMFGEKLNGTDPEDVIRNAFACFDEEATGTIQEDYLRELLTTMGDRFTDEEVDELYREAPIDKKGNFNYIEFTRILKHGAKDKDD
The test is described as follows: ELISA, human Myl12b-His coated, anti-human IgG-HRP. Here is the method:
as §2

Test [2] deals with T1, human Myl3-His. The test is described as follows: ELISA at 0.01, 0.1 and 1 µg/mL, human Myl3-His coated, anti-human IgG-HRP. The method, then: as §2

Here are results for 8 molecules from US20190002588A1 (NATIONAL UNIVERSITY CORPORATION CHIBA UNIVERSITY, published 2019).

T1 sequence (P08590 2-195 limits assumed): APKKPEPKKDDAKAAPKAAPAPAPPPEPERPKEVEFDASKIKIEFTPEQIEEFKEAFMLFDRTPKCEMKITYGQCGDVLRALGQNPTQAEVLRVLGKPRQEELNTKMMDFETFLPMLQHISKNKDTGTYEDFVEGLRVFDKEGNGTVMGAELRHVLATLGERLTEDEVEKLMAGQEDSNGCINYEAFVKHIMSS

B1: Humanized antibody No. 131 (antibody, human IgG2, kappa)
heavy: QVQLVQSGSELKKPGASVKVSCKASGYTFTDYEMHWVRQAPGQGLEWMGAIDPETGGTAYNQKFKGRFVFSLDTSVSTAYLQISSLKAEDTAVYYCADYDYDGFAYWGQGTLVTVSSASTKGPSVFPLAPCSRSTSESTAALGCLVKDYFPEPVTVSWNSGALTSGVHTFPAVLQSSGLYSLSSVVTVPSSNFGTQTYTCNVDHKPSNTKVDKTVERKCCVECPPCPAPPAAAPSVFLFPPKPKDTLMISRTPEVTCVVVDVSHEDPEVQFNWYVDGVEVHNAKTKPREEQFNSTFRVVSVLTVVHQDWLNGKEYKCKVSNKGLPAPIEKTISKTKGQPREPQVYTLPPSREEMTKNQVSLTCLVKGFYPSDIAVEWESNGQPENNYKTTPPMLDSDGSFFLYSKLTVDKSRWQQGNVFSCSVMHEALHNHYTQKSLSLSPG
light: DIVMTQSPLSLPVTPGEPASISCRSSQSLVHSNGNTYLHWYLQKPGQSPQLLISKVSNRFSGVPDRFSGSGSGTDFTLKISRVEAEDVGVYFCSQNTHVPPLTFGGGTKVEIKRTVAAPSVFIFPPSDEQLKSGTASVVCLLNNFYPREAKVQWKVDNALQSGNSQESVTEQDSKDSTYSLSSTLTLSKADYEKHKVYACEVTHQGLSSPVTKSFNRGEC
notes: human IgG2 (V234A, G237A, C-terminal Lys deleted) / kappa; Expi293F, Protein A purified; also called HK3-2/L1-4
On to B1, for which the binding result in the test with human Myl3-His [1] is on record as “no binding (tested: 10 µg/mL)”; with human Myl9-His it was “binds”; in the test with human Myl12a-His, “binds”; with human Myl12b-His it was “binds”.

B2: Humanized antibody No. 132 (antibody, human IgG2, kappa)
heavy: QVQLVQSGSELKKPGASVKVSCKASGYTFTDYEMHWVRQAPGQGLEWMGAIDPETGGTAYNQKFKGRFVFSLDTSVSTAYLQISSLKAEDTAVYYCADYDYDGFAYWGQGTLVTVSSASTKGPSVFPLAPCSRSTSESTAALGCLVKDYFPEPVTVSWNSGALTSGVHTFPAVLQSSGLYSLSSVVTVPSSNFGTQTYTCNVDHKPSNTKVDKTVERKCCVECPPCPAPPAAAPSVFLFPPKPKDTLMISRTPEVTCVVVDVSHEDPEVQFNWYVDGVEVHNAKTKPREEQFNSTFRVVSVLTVVHQDWLNGKEYKCKVSNKGLPAPIEKTISKTKGQPREPQVYTLPPSREEMTKNQVSLTCLVKGFYPSDIAVEWESNGQPENNYKTTPPMLDSDGSFFLYSKLTVDKSRWQQGNVFSCSVMHEALHNHYTQKSLSLSPG
light: DVVMTQSPLSLPVTPGEPASISCRSSQSLVHSNGNTYLHWYLQKPGQSPQLLISKVSNRFSGVPDRFSGSGSGTDFTLKISRVEAEDVGVYFCSQNTHVPPLTFGGGTKVEIKRTVAAPSVFIFPPSDEQLKSGTASVVCLLNNFYPREAKVQWKVDNALQSGNSQESVTEQDSKDSTYSLSSTLTLSKADYEKHKVYACEVTHQGLSSPVTKSFNRGEC
notes: human IgG2 (V234A, G237A, C-terminal Lys deleted) / kappa; Expi293F, Protein A purified; also called HK3-2/L1-A
On to B2, for which the binding result with human Myl3-His [1] was “no binding (tested: 10 µg/mL)”; with human Myl9-His, “binds”; in the test with human Myl12a-His it was “binds”; with human Myl12b-His, “binds”.

B3: Humanized antibody No. 133 (antibody, human IgG2, kappa)
heavy: QVQLVQSGSELKKPGASVKVSCKASGYTFTDYEMHWVRQAPGQGLEWMGAIDPETGGTAYNQKFKGRFVFSLDTSVSTAYLQISSLKAEDTAVYYCADYDYDGFAYWGQGTLVTVSSASTKGPSVFPLAPCSRSTSESTAALGCLVKDYFPEPVTVSWNSGALTSGVHTFPAVLQSSGLYSLSSVVTVPSSNFGTQTYTCNVDHKPSNTKVDKTVERKCCVECPPCPAPPAAAPSVFLFPPKPKDTLMISRTPEVTCVVVDVSHEDPEVQFNWYVDGVEVHNAKTKPREEQFNSTFRVVSVLTVVHQDWLNGKEYKCKVSNKGLPAPIEKTISKTKGQPREPQVYTLPPSREEMTKNQVSLTCLVKGFYPSDIAVEWESNGQPENNYKTTPPMLDSDGSFFLYSKLTVDKSRWQQGNVFSCSVMHEALHNHYTQKSLSLSPG
light: DIVMTQSPLSLSITPGEQASISCRSSQSLVHSNGNTYLHWYLQKPGQSPQLLISKVSNRFSGVPDRFSGSGSGTDFTLKISRVEAEDVGVYFCSQNTHVPPLTFGGGTKVEIKRTVAAPSVFIFPPSDEQLKSGTASVVCLLNNFYPREAKVQWKVDNALQSGNSQESVTEQDSKDSTYSLSSTLTLSKADYEKHKVYACEVTHQGLSSPVTKSFNRGEC
notes: human IgG2 (V234A, G237A, C-terminal Lys deleted) / kappa; Expi293F, Protein A purified; also called HK3-2/L1-5
For B3, the binding result in the test with human Myl3-His [1] is recorded as “no binding (tested: 10 µg/mL)”; with human Myl9-His it was “binds”; with human Myl12a-His, “binds”; with human Myl12b-His, “binds”.

B4: Humanized antibody No. 134 (antibody, human IgG2, kappa, V domains shown)
VH: QVQLVQSGSELKKPGASVKVSCKASGYTFTDYEMHWVRQAPGQGLEWMGAIDPETGGTAYNQKFKGRFVFSLDTSVSTAYLQISSLKAEDTAVYYCADYDYDGFAYWGQGTLVTVSS
VL: DIVMTQTPLSSPVTLGQPASISCRSSQSLVHSNGNTYLHWYQQRPGQPPRLLISKVSNRFSGVPDRFSGSGAGTDFTLKISRVEAEDVGVYFCSQNTHVPPLTFGGGTKVEIKR
notes: human IgG2 (V234A, G237A, C-terminal Lys deleted) / kappa; Expi293F, Protein A purified; also called HK3-2/L4-2
B4: the binding result is on record as “no binding (tested: 10 µg/mL)” with human Myl3-His [1], “binds” in the test with human Myl9-His, “binds” with human Myl12a-His and “binds” with human Myl12b-His.

B5: chimeric antibody prepared from Antibody A (antibody, human IgG2, kappa, V domains shown)
VH: QVQLQQSGAEVVRPGASVTLSCKASGYTFTDYEMHWVKQTPVHGLEWIGAIDPETGGTAYNQKFKGKAILTADKSSNTAYMELRSLTSEDSAVYYCTDYDYDGFAYWGQGTLVTVSA
VL: DVVMTQTPLSLPVSLGDQASISCRSSQSLVHSNGNTYLHWYLQKPGRSPKLLISKVSNRFSGVPDRFSGSGSGTDFTLKITRVEAEDLGVYFCSQNTHVPPLTFGAGTKLELKR
notes: VH and VL amino acid numbers 13 and 15 are deduced as for Antibody A
In the case of B5, the binding result with human Myl9-His is given as “binds”; in the test with human Myl12a-His it was “binds”; with human Myl12b-His it was “binds”; in the test with human Myl3-His [2], “no binding (tested: 1 µg/mL)”.

B6: Humanized antibody No. 113 (antibody, human IgG2, kappa, V domains shown)
VH: QVQLVQSGAEVKKPGSSVKVSCKASGGTFSDYEMHWVRQAPGQGLEWMGAIDPETGGTAYNQKFKGRVTITADKSTSTAYMELRSLRSEDTAVYYCADYDYDGFAYWGQGTLVTVSS
VL: DIVMTQSPLSLSITPGEQASISCRSSQSLVHSNGNTYLHWYLQKPGQSPQLLISKVSNRFSGVPDRFSGSGSGTDFTLKISRVEAEDVGVYFCSQNTHVPPLTFGGGTKVEIKR
notes: human IgG2 (V234A, G237A, C-terminal Lys deleted) / kappa; Expi293F, Protein A purified; also called HK1-6/L1-5
Consider B6, for which the binding result in the test with human Myl9-His is listed as “binds”; with human Myl12a-His it was “binds”; with human Myl12b-His, “binds”; with human Myl3-His [2], “no binding (tested: 1 µg/mL)”.

B7: Humanized antibody No. 111 (antibody, human IgG2, kappa, V domains shown)
VH: QVQLVQSGAEVKKPGSSVKVSCKASGYTFTDYEMHWVRQAPGQGLEWMGAIDPETGGTAYAQKFQGRATITADKSTSTAYMELRSLRSEDTAVYYCADYDYDGFAYWGQGTLVTVSS
VL: DIVMTQSPLSLSITPGEQASISCRSSQSLVHSNGNTYLHWYLQKPGQSPQLLISKVSNRFSGVPDRFSGSGSGTDFTLKISRVEAEDVGVYFCSQNTHVPPLTFGGGTKVEIKR
notes: human IgG2 (V234A, G237A, C-terminal Lys deleted) / kappa; Expi293F, Protein A purified; also called HA1-4/L1-5
For B7, the binding result is recorded as “binds” with human Myl9-His, “binds” in the test with human Myl12a-His, “binds” with human Myl12b-His and “no binding (tested: 1 µg/mL)” with human Myl3-His [2].

B8: Humanized antibody No. 110 (antibody, human IgG2, kappa, V domains shown)
VH: QVQLVQSGAEVKKPGSSVKVSCKASGYTFTDYEMHWVRQAPGQGLEWMGAIDPETGGTAYAQKFQGRVTITADKSTSTAYMELRSLRSEDTAVYYCADYDYDGFAYWGQGTLVTVSS
VL: DIVMTQSPLSLSITPGEQASISCRSSQSLVHSNGNTYLHWYLQKPGQSPQLLISKVSNRFSGVPDRFSGSGSGTDFTLKISRVEAEDVGVYFCSQNTHVPPLTFGGGTKVEIKR
notes: human IgG2 (V234A, G237A, C-terminal Lys deleted) / kappa; Expi293F, Protein A purified; also called HA1-6/L1-5
Consider B8, for which the binding result with human Myl9-His was “binds”; with human Myl12a-His it was “binds”; with human Myl12b-His, “binds”; with human Myl3-His [2], “no binding (tested: 1 µg/mL)”.
